Measured values taken from US7858348B2, “N-acetyl-(R,S)-beta-amino acid acylase gene” (Ajinomoto Co., Inc., priority 2006, dated 2010).

B1: N-acetyl-(R)-β-amino acid acylase: enzyme purified from Burkholderia sp. AJ110349, subunit about 84 kDa, SEQ. ID. NO. 8 (protein)
chain: MITITGYSDVLSAGPGETVEFKVSSKSPHPFTAELVRVIHADPNPAGPGMRFEPLGQVFSGTFASFDKPLLPGSFARVSGVPAAGSAAGLVAGARIRPTALARGDQCVMSQWNTARHAGFALLVSERGLELRLGAGTGEPPVCVLCAARLEVRWYDVWFAIDTASNRIEVGVTEVDGSVAAPVRHRTLQMLDARWRAPHSDDAADLLIGALEDGAGRRAHFNGQIEAPFVADALPSPATPAATVEYAAPRASDFSTDALYAAWDFARGIDTLKIADTTPHARHGTLQNLPTRAVRSSAWNGRERCWRTAPAHYAAIHFHDDDLHDAGWSTDFAFTVPATLKSGAYAMRLSVDGATDYLPFYVRPELGRPGAPLVFVAATYTYQAYANYARGNFDAALRDKVGRWGAYPHNPDDHPEVGLATYNLHSDGSGVMFSSRLRPMLTMRPGFLTFDDSRGSGCRHYIADSHLLDWLEHEGFSFDVVTDDDLERFGAALLEPYAAVLTGTHPEYHTAATLDALAGYKRSGGNLAYLGGNGFYWRVGRSERVPGALEVRRTEGGVRAWAAEAGEYFHALDGEYGGLWRSSARTPQQLVGVGFSSQGPFEGSHYRVLDAARSQPGGSLLKDIAGPLFGGYGLSGGGAAGFELDSTEAADGTPANVIILARSESHSAAFGPALDALLSHTATRARKTPDTLIRSEIVYYETGYGGAVFSVGSITFCGALSHNDYRNDVSTLLRNVLIRFSRDRGAQAHAVPAVAHTEVD
modifications: Burkholderia sp. AJ110349
B2: N-acetyl-(S)-β-amino acid acylase: enzyme purified from Burkholderia sp. AJ110349, subunit about 41 kDa, SEQ. ID. NO. 10 (protein)
chain: MDFCQMNDLASRKGRIQTVLGLIDPHELGPALMHEHLLIDLVPPKLAEDADHDQTEIDLCNCWKINYGQVPSLKNYRLDQKDVAVEELLEMRAAGGSAIVDLTTGGLKPDPQGLAQISREAGVHVVMGCGHYVHEYQDAANAHRSVDDFASEMIGQITEGAWGTQVRAGIIGEIGCQSPWTEQEKRVVRGALIAQQETGAALNIHPGRHAEQPQEVIDTIKSLGYPVERVIISHIDRTIFDDTRLLRLADSGCVIELDLFGWEQSAYPMSDIDMPNDGARLRMVRTLLDHGHAERVLISHDICTRTRLGRYGGHGYQHIFANVVPRMLRRDFTQDEIDTLLTRNPRRLLTFV
modifications: Burkholderia sp.AJ110349
notes: enzyme purified from Burkholderia sp; ID; NO; 10

Test: N-acetyl-β-amino acid acylase activity and optical selectivity of purified enzymes and cell-free extracts
Assay type: biochemical
Details: 30° C.; for Specific activity: purified enzyme after Mono-Q, 10 mM N acetyl-(R,S)-β-Phe, 50 mM Tris-HCl (pH 7.6); for Optical specificity (β-Phe enantiomer produced): purified enzyme, N-acetyl-(R,S)-β-Phe, 30 minutes
Description: 10 mM N acetyl-(R,S)-β-Phe, 50 mM Tris-HCl (pH 7.6), and a reaction solution containing a suitable enzyme sample were left standing from 15 minutes to 2 hours at 30° C., and then processed by boiling for 5 minutes to stop the reaction. The reaction solution was centrifuged. The supernatant was suitably diluted and then analyzed by HPLC. Acylase activity that produced 1 μmol of (R)-β-Phe or (S)-β-Phe per minute under these standard reaction conditions was defined as one unit. Activity producing (R)-β-Phe from N-acetyl-(R,S)-β-Phe will be referred to as N-acetyl-(R)-β-Phe acylase activity and activity producing (S)-β-Phe will be referred to as N-acetyl-(S)-β-Phe acylase activity hereinafter.
(R)-β-Phe, (S)-β-Phe, N-acetyl-(R)-β-Phe, and N-acetyl-(S)-β-Phe were quantitatively analyzed. The column employed was an Inertsil ODS3 (0.46 cm in diameter, 5 cm) made by GL Science and a Chiralpak WH (0.46 cm in diameter, 25 cm) made by Daisel Chemical Industries, arranged consecutively in that order. The mobile phase was 0.25 mM CuSO4, 2 percent (v/v) acetonitrile. The flow rate was 1.5 mL/minute. The column temperature was 50° C. Detection was conducted with a UV detector at 210 nm. In this analysis, the above four compounds eluted out at different elution times. The elution sequence, in order of elution speed, was (S)-β-Phe, (R)-β-Phe, N-acetyl-(R)-β-Phe, and N-acetyl-(S)-β-Phe. The quantities were calculated from the peak area values relative to various standard products.
An Inertsil Ph-3 (0.46 cm in diameter, 25 cm) column made by GL Science was employed. The mobile phase was 10 percent acetonitrile (adjusted to pH 3.0 with phosphoric acid). The temperature was 40° C. The flow rate was 1.0 mL/min. Detection was conducted under UV conditions of 210 nm and peak area values were calculated based on comparison with various standard racemic products.
Optical selectivity was measured using the purified enzymes as enzyme sources. Reactions were conducted under the above enzyme conditions for a period of 30 minutes. The quantity of enzyme added was 4.6 μg/mL (N-acetyl-(R)-β-amino acid acylase) or 3.1 μg/mL (N-acetyl-(S)-β-amino acid acylase).
The K83 strain obtained was precultured for 16 hours at 37° C. in LB medium containing 100 mg/L of ampicillin. A 1 mL quantity of the cultured bacterial cells was transferred to 50 mL of TB medium containing 100 mg/L of ampicillin and 1 mM of IPTG and cultured for 16 hours at 30° C. […] When the N-acetyl-β-amino acid acylase activity was measured under the separation conditions of N-acetyl-β-Phe and β-Phe, a value of 2.3 U/mg was obtained.
JM109/ptrp4—3BR was cultured for 16 hours at 37° C. in LB medium containing 100 mg/L of ampicillin. […] The quantity of β-Phe produced was measured by HPLC. […]

| Molecule | Specific activity [U/mg] | Optical specificity (β-Phe enantiomer produced) |
| --- | --- | --- |
| B1 | 12.4 | only the production of (R)-β-Phe was observed |
| B2 | 13.1 | Only the production of (S)-β-Phe was observed |
